In PMC11538695 (Advanced Science, 2024):
One block for each binder: values may come before it.

What was measured:
Details in all cases: both partners purified
[1] = biological target: T1, full-length human P97/VCP (Valosin-Containing Protein) (human, UniProt P55072 1-806); assay: pull-down; 50 µg GST-tagged VCPIP1 protein held on glutathione Sepharose 4B, full-length P97/VCP at molar ratio 1:3; 20 mM Tris pH 7.5, 100 mM NaCl, 1 mM DTT; Coomassie staining
T1 construct: P97/VCP (valosin-containing protein), human, full length; Cloned into pRSF-32 M (N-terminal thioredoxin and 6xHis) or pET-28a; source: E. coli BL21 (DE3), purified (Ni-NTA, size exclusion chromatography)

[2] = biological target: T2, N-terminal region of VCPIP1 (residues 40-464) (human, UniProt Q96JH7 40-464); assay: SEC; gel filtration co-migration of purified fragments, fractions on SDS-PAGE with Coomassie staining
T2 construct: VCPIP1, human, N-terminal region with the OTU domain, residues 40-464; also called N-terminal OTU domain (residues 40-464); source: E. coli BL21 (DE3) (said of the recombinant proteins in general), purified
T2 sequence (looked up): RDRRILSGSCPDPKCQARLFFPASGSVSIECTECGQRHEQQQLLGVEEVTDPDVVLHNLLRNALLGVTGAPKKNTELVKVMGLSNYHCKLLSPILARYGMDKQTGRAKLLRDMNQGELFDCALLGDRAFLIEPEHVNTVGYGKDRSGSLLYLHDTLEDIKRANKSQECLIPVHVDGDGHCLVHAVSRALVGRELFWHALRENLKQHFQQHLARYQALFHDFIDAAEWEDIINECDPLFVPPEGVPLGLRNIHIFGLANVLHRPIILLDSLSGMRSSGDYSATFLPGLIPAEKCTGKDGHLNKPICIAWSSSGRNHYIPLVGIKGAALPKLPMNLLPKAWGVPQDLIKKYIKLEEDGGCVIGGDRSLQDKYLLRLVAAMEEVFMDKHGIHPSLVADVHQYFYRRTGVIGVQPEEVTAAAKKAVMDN

[3] = biological target: T3, Syntaxin5 (STX5) contained SNARE complex (syntaxin-5, GOSR1, Ykt6, Bet1, without transmembrane domains) (human, UniProt Q13190 55-330; O95249 150-230; O15498 1-193; O15155 1-93); assay: pull-down; MBP pull-down, SNARE complex held by MBP-syntaxin5; P97/VCP-P47 without or with VCPIP1 WT or Y623E/F638E added (VCPIP1 WT enhanced, the double mutant did not)
T3 construct: syntaxin-5, human, residues 55-330; GosR1, human, residues 150-230; Ykt6, human, residues 1-193; Bet1, human, residues 1-93; also called intact SNARE complex; SNARE substrate; source: E. coli BL21 (DE3), pellets mixed and lysed together, purified (amylose resin, size exclusion chromatography); not shown: MBP, N-terminal, kept; copies: + + +
T3 sequence (looked up) 1: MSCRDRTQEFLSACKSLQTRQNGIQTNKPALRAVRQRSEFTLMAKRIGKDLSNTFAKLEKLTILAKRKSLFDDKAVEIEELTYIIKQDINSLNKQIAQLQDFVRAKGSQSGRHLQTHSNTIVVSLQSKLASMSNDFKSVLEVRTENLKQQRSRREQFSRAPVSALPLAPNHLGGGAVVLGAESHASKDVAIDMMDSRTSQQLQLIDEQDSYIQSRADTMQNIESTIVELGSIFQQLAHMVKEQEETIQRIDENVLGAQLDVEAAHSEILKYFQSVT
T3 sequence (looked up) 2: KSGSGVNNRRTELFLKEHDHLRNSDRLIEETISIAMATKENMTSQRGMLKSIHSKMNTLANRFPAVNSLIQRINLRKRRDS
T3 sequence (looked up) 3: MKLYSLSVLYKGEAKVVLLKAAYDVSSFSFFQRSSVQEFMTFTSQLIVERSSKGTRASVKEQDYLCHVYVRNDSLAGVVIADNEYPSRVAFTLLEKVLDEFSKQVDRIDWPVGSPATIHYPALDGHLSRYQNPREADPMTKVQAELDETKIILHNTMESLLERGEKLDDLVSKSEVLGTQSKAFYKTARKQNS
T3 sequence (looked up) 4: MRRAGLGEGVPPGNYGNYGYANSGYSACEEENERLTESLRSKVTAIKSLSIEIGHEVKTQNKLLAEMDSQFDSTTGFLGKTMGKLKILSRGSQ

[4] = biological target: T1, full-length human P97/VCP …; assay: as above

B1: GST-VCPIP1 F1 fragment (IDR1-OTU) (domain or fragment, human, UniProt Q96JH7 1-464, looked up)
chain: MSQPPPPPPPLPPPPPPPEAPQTPSSLASAAASGGLLKRRDRRILSGSCPDPKCQARLFFPASGSVSIECTECGQRHEQQQLLGVEEVTDPDVVLHNLLRNALLGVTGAPKKNTELVKVMGLSNYHCKLLSPILARYGMDKQTGRAKLLRDMNQGELFDCALLGDRAFLIEPEHVNTVGYGKDRSGSLLYLHDTLEDIKRANKSQECLIPVHVDGDGHCLVHAVSRALVGRELFWHALRENLKQHFQQHLARYQALFHDFIDAAEWEDIINECDPLFVPPEGVPLGLRNIHIFGLANVLHRPIILLDSLSGMRSSGDYSATFLPGLIPAEKCTGKDGHLNKPICIAWSSSGRNHYIPLVGIKGAALPKLPMNLLPKAWGVPQDLIKKYIKLEEDGGCVIGGDRSLQDKYLLRLVAAMEEVFMDKHGIHPSLVADVHQYFYRRTGVIGVQPEEVTAAAKKAVMDN
notes: VCPIP1, human, residues 1-464 (methods); the results print 1-465; pGEX-6P-1 vector; source: E. coli BL21 (DE3), purified (glutathione Sepharose 4B, size exclusion chromatography); not shown: GST, N-terminal, kept
binding result [1]: binds

B4: full-length human P47 (natural protein, UniProt Q9UNZ2 1-370, looked up)
chain: MAAERQEALREFVAVTGAEEDRARFFLESAGWDLQIALASFYEDGGDEDIVTISQATPSSVSRGTAPSDNRVTSFRDLIHDQDEDEEEEEGQRFYAGGSERSGQQIVGPPRKKSPNELVDDLFKGAKEHGAVAVERVTKSPGETSKPRPFAGGGYRLGAAPEEESAYVAGEKRQHSSQDVHVVLKLWKSGFSLDNGELRSYQDPSNAQFLESIRRGEVPAELRRLAHGGQVNLDMEDHRDEDFVKPKGAFKAFTGEGQKLGSTAPQVLSTSSPAQQAENEAKASSSILIDESEPTTNIQIRLADGGRLVQKFNHSHRISDIRLFIVDARPAMAATSFILMTTFPNKELADESQTLKEANLLNAVIVQRLT
notes: P47 (adaptor of P97/VCP), human, full length; Cloned into pRSF-32 M or pET-28a; source: E. coli BL21 (DE3), purified (Ni-NTA, size exclusion chromatography)
binding result [3]: binds
binding result [4]: binds

Other lines, results leading:

binding result [2]: binds
B2: C-terminal tail of P97/VCP (residues 765-806) (domain or fragment, human, UniProt P55072 765-806, looked up)
chain: SRGFGSFRFPSGNQGGAGPSQGSGGGTGGSVYTEDNDDDLYG
notes: P97/VCP, human, C-terminal tail, residues 765-806; also called P97/VCP tail; source: E. coli BL21 (DE3) (said of the recombinant proteins in general), purified

binding result [1]: binds
B3: GST-VCPIP1 F3 fragment (IDR2-UBL-UFD2) (domain or fragment, human, UniProt Q96JH7 680-1000, looked up)
chain: QGQESESQLPTKIILTGQKTKTLHKEELNMSKTERTIQQNITEQASVMQKRKTEKLKQEQKGQPRTVSPSTIRDGPSSAPATPTKAPYSPTTSKEKKIRITTNDGRQSMVTLKSSTTFFELQESIAREFNIPPYLQCIRYGFPPKELMPPQAGMEKEPVPLQHGDRITIEILKSKAEGGQSAAAHSAHTVKQEDIAVTGKLSSKELQEQAEKEMYSLCLLATLMGEDVWSYAKGLPHMFQQGGVFYSIMKKTMGMADGKHCTFPHLPGKTFVYNASEDRLELCVDAAGHFPIGPDVEDLVKEAVSQVRAEATTRSRESSPS
notes: VCPIP1, human, residues 680-1000; pGEX-6P-1 vector; source: E. coli BL21 (DE3), purified (glutathione Sepharose 4B, size exclusion chromatography); not shown: GST, N-terminal, kept
